From US20190201491A1
[ ]: non-standard residue; d: D form. Phe(4-Ac) = CC(=O)c1ccc(C[C@H](N)C(=O)O)cc1

Target: beta Klotho and FGFR1c (Fibroblast Growth Factor Receptor isoform 1c) expressed on the cell surface of a proprietary stable cell line (HEK293)
Assay: cell-based or functional assay

B1: bFGF-21-K91-30KPEG (ligand)
chain: HPIPDSSPLLQFGGQVRQRYLYTDDAQETEAHLEIRADGTVVGAARQSPESLLELKALKPGVIQILGVKTSRFLCQGPDGKLYGSLHFDP[Phe(4-Ac)](PEG 30 kDa)ACSFRELLLEDGYNVYQSETLGLPLRLPPQRSSNRDPAPRGPARFLPLPGLPAAPPDPPGILAPEPPDVGSSDPLSMVEPSYGRSPSYTS
modifications: not fully specified; also: PEG: linear aminooxy-PEG
For B1, the EC50 (ng/mL), STEADY-GLO Elk1 luciferase reporter assay was 537 ng/mL, the Emax (%) relative to WT bFGF-21, Elk1 luciferase reporter assay was 57% and the Fold loss potency relative to WT bFGF21, Elk1 luciferase reporter assay was 14 fold.

B2: bFGF-21-Q108-30KPEG G170A (ligand)
chain: HPIPDSSPLLQFGGQVRQRYLYTDDAQETEAHLEIRADGTVVGAARQSPESLLELKALKPGVIQILGVKTSRFLCQGPDGKLYGSLHFDPKACSFRELLLEDGYNVY[Phe(4-Ac)](PEG 30 kDa)SETLGLPLRLPPQRSSNRDPAPRGPARFLPLPGLPAAPPDPPGILAPEPPDVGSSDPLSMVAPSYGRSPSYTS
Binder B2 has an Average Fold Loss Potency Relative to bFGF-21-Q108-30KPEG, Elk1 luciferase reporter assay of 1.7 fold.

B3: bFGF-21-R131-30KPEG (ligand)
chain: HPIPDSSPLLQFGGQVRQRYLYTDDAQETEAHLEIRADGTVVGAARQSPESLLELKALKPGVIQILGVKTSRFLCQGPDGKLYGSLHFDPKACSFRELLLEDGYNVYQSETLGLPLRLPPQRSSNRDPAP[Phe(4-Ac)](PEG 30 kDa)GPARFLPLPGLPAAPPDPPGILAPEPPDVGSSDPLSMVEPSYGRSPSYTS
modifications: not fully specified; also: PEG: linear aminooxy-PEG
Work on B3 yielded an EC50 (ng/mL), STEADY-GLO Elk1 luciferase reporter assay of 556 ng/mL, an Emax (%) relative to WT bFGF-21, Elk1 luciferase reporter assay of 38% and a Fold loss potency relative to WT bFGF21, Elk1 luciferase reporter assay of 14 fold.

B4: bFGF-21-Q108-30KPEG G170D (ligand)
chain: HPIPDSSPLLQFGGQVRQRYLYTDDAQETEAHLEIRADGTVVGAARQSPESLLELKALKPGVIQILGVKTSRFLCQGPDGKLYGSLHFDPKACSFRELLLEDGYNVY[Phe(4-Ac)](PEG 30 kDa)SETLGLPLRLPPQRSSNRDPAPRGPARFLPLPGLPAAPPDPPGILAPEPPDVGSSDPLSMVDPSYGRSPSYTS
B4 was tested, and the Average Fold Loss Potency Relative to bFGF-21-Q108-30KPEG, Elk1 luciferase reporter assay was 8.7 fold.

B5: bFGF-21-Q108pAF-30KPEG-G170E (ligand)
chain: HPIPDSSPLLQFGGQVRQRYLYTDDAQETEAHLEIRADGTVVGAARQSPESLLELKALKPGVIQILGVKTSRFLCQGPDGKLYGSLHFDPKACSFRELLLEDGYNVY[Phe(4-Ac)](PEG 30 kDa)SETLGLPLRLPPQRSSNRDPAPRGPARFLPLPGLPAAPPDPPGILAPEPPDVGSSDPLSMVEPSYGRSPSYTS
In the case of B5, the Average Fold Loss Potency Relative to bFGF-21-Q108-30KPEG, Elk1 luciferase reporter assay is reported as 3.7 fold.

B6: bFGF-21-G77-30KPEG (ligand)
chain: HPIPDSSPLLQFGGQVRQRYLYTDDAQETEAHLEIRADGTVVGAARQSPESLLELKALKPGVIQILGVKTSRFLCQ[Phe(4-Ac)](PEG 30 kDa)PDGKLYGSLHFDPKACSFRELLLEDGYNVYQSETLGLPLRLPPQRSSNRDPAPRGPARFLPLPGLPAAPPDPPGILAPEPPDVGSSDPLSMVEPSYGRSPSYTS
modifications: not fully specified; also: PEG: linear aminooxy-PEG
Binder B6 has an EC50 (ng/mL), STEADY-GLO Elk1 luciferase reporter assay of 347 ng/mL, an Emax (%) relative to WT bFGF-21, Elk1 luciferase reporter assay of 50% and a Fold loss potency relative to WT bFGF21, Elk1 luciferase reporter assay of 9 fold.

B7: bFGF-21-Q108-30KPEG G170S (ligand)
chain: HPIPDSSPLLQFGGQVRQRYLYTDDAQETEAHLEIRADGTVVGAARQSPESLLELKALKPGVIQILGVKTSRFLCQGPDGKLYGSLHFDPKACSFRELLLEDGYNVY[Phe(4-Ac)](PEG 30 kDa)SETLGLPLRLPPQRSSNRDPAPRGPARFLPLPGLPAAPPDPPGILAPEPPDVGSSDPLSMVSPSYGRSPSYTS
B7 gave an Average Fold Loss Potency Relative to bFGF-21-Q108-30KPEG, Elk1 luciferase reporter assay of 0.8 fold.

B8: bFGF-21-Q108-30KPEG (ligand)
chain: HPIPDSSPLLQFGGQVRQRYLYTDDAQETEAHLEIRADGTVVGAARQSPESLLELKALKPGVIQILGVKTSRFLCQGPDGKLYGSLHFDPKACSFRELLLEDGYNVY[Phe(4-Ac)](PEG 30 kDa)SETLGLPLRLPPQRSSNRDPAPRGPARFLPLPGLPAAPPDPPGILAPEPPDVGSSDPLSMVGPSYGRSPSYTS
With B8 the Average Fold Loss Potency Relative to bFGF-21-Q108-30KPEG, Elk1 luciferase reporter assay was 1 fold, the EC50 (ng/mL), STEADY-GLO Elk1 luciferase reporter assay was 147 ng/mL and the Emax (%) relative to WT bFGF-21, Elk1 luciferase reporter assay was 73%. The Fold loss potency relative to WT bFGF21, Elk1 luciferase reporter assay was 4 fold.
